Laboratory results as given in patent publication US20160297889A1 (TORAY INDUSTRIES, published 2016).

Target: T1, CAPRIN-1 protein expressed on the membrane surface of human cancer cells (human, UniProt Q14444 2-709)
T1 sequence (looked up): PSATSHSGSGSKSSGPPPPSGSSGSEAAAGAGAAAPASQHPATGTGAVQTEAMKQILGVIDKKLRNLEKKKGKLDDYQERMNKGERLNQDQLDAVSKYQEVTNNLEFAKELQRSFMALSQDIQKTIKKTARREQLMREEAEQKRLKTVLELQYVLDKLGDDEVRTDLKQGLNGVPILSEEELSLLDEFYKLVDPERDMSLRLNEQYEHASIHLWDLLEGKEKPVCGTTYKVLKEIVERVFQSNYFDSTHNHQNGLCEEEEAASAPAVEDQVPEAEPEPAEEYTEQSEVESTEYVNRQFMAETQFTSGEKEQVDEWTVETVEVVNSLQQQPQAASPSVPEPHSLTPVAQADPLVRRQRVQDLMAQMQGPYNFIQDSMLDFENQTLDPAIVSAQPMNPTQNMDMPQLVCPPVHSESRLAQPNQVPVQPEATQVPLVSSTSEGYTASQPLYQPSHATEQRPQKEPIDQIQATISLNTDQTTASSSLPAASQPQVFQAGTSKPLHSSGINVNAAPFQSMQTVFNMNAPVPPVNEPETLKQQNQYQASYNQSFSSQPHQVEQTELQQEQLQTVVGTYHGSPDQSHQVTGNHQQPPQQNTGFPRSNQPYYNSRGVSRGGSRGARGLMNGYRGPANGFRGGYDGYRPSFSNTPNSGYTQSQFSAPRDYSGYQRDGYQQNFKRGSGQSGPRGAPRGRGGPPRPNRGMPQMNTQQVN
Experiment: cell-based or functional assay

Binder | ADCC cytotoxic activity (51Cr release) on 22Rv1 [%] | ADCC cytotoxic activity (51Cr release) on A-673 [%] | ADCC cytotoxic activity (51Cr release) on BT-474 [%] | ADCC cytotoxic activity (51Cr release) on Caki-2 [%] | ADCC cytotoxic activity (51Cr release) on FaDu [%] | ADCC cytotoxic activity (51Cr release) on G-361 [%] | ADCC cytotoxic activity (51Cr release) on HEC-1-A [%] | ADCC cytotoxic activity (51Cr release) on HT-29 [%] | ADCC cytotoxic activity (51Cr release) on HT-1080 [%] | ADCC cytotoxic activity (51Cr release) on HT-1376 [%] | ADCC cytotoxic activity (51Cr release) on Hep3B [%] | ADCC cytotoxic activity (51Cr release) on IM-9 [%] | ADCC cytotoxic activity (51Cr release) on MDA-MB-361 [%] | ADCC cytotoxic activity (51Cr release) on NCI-H2452 [%] | ADCC cytotoxic activity (51Cr release) on NCI-N87 [%] | ADCC cytotoxic activity (51Cr release) on NT/D1 [%] | ADCC cytotoxic activity (51Cr release) on OCI-AML5 [%] | ADCC cytotoxic activity (51Cr release) on OE33 [%] | ADCC cytotoxic activity (51Cr release) on Panc10.5 [%] | ADCC cytotoxic activity (51Cr release) on QG56 [%] | further results
humanized antibody #7 (antibody, V domains shown) VH: EVQLVESGGGLVQPGGSLRLSCAASGFSLSSHSLGWVRQAPGKGLEWIGDIRSGGSAYYANWAKGRFTISRDNSKNTLYLQMNSLRAEDTAVYYCTRTNGPSDLTNRLDLWGQGTLVTVSS VL: QVLTQSPSSLSASVGDRVTINCQASQSLYNNENLAWFQQKPGKVPKRLIYGASTLASGVSSRFSGSGSGTEFTLTISSLQCEDFAIYYCLGEFSCGSADCFAFGGGTKVEIK | ≥ 49 | ≥ 50 | ≥ 54 | ≥ 37 | ≥ 50 | ≥ 25 | ≥ 52 | ≥ 43 | ≥ 30 | ≥ 45 | ≥ 28 | ≥ 35 | ≥ 52 | ≥ 35 | ≥ 45 | ≥ 37 | ≥ 20 | ≥ 35 | ≥ 35 | ≥ 46 | ADCC cytotoxic activity (51Cr release) on RD-ES: ≥ 48%; ADCC cytotoxic activity (51Cr release) on RPM11666: ≥ 40%; ADCC cytotoxic activity (51Cr release) on Ramos: ≥ 20%; ADCC cytotoxic activity (51Cr release) on SKOV3: ≥ 35%; ADCC cytotoxic activity (51Cr release) on T24: ≥ 36%; ADCC cytotoxic activity (51Cr release) on TGBC14TKB: ≥ 35%; ADCC cytotoxic activity (51Cr release) on TT: ≥ 42%; ADCC cytotoxic activity (51Cr release) on U-87MG: ≥ 36%
humanized antibody #2 (antibody, V domains shown) VH: EVQLVESGGGLVQPGGSLRLSCAASGFSLSSHSLGWVRQAPGKGLEWIGDIRSGGSAYYANWAKGRFTISRDNSKNTLYLQMNSLRAEDTAVYYCTRTNGPSDLTNRLDLWGQGTLVTVSS VL: EIVLTQSPSSLSASVGDRVTINCQASQSLYNNENLAWFQQKPGKVPKRLIYGASTLASGVSSRFSGSGSGTEFTLTISNLQPEDFATYYCLGEFSCGSADCFAFGGGTKVEIK | ≥ 45 | ≥ 46 | ≥ 50 | ≥ 33 | ≥ 40 | ≥ 21 | ≥ 45 | ≥ 40 | ≥ 25 | ≥ 40 | ≥ 25 | ≥ 30 | ≥ 45 | ≥ 39 | ≥ 38 | ≥ 30 | ≥ 18 | ≥ 33 | ≥ 30 | ≥ 42 | ADCC cytotoxic activity (51Cr release) on RD-ES: ≥ 40%; ADCC cytotoxic activity (51Cr release) on RPM11666: ≥ 36%; ADCC cytotoxic activity (51Cr release) on Ramos: ≥ 18%; ADCC cytotoxic activity (51Cr release) on SKOV3: ≥ 31%; ADCC cytotoxic activity (51Cr release) on T24: ≥ 33%; ADCC cytotoxic activity (51Cr release) on TGBC14TKB: ≥ 30%; ADCC cytotoxic activity (51Cr release) on TT: ≥ 35%; ADCC cytotoxic activity (51Cr release) on U-87MG: ≥ 29%
humanized antibody #10 (antibody, V domains shown) VH: EQSLVESGGGLVQPGGSLRLSCAASGFSLSSHSLGWVRQAPGKGLEWIGDIRSGGSAYYANWAKGRFTISRDNSKNTLYLQMNSLRAEDTAVYYCTRTNGPSDLTNRLDLWGQGTLVTVSS VL: QVLTQSPSSLSASVGDRVTINCQASQSLYNNENLAWFQQKPGKVPKRLIYGASTLASGVSSRFSGSGSGTEFTLTISSLQCEDFAIYYCLGEFSCGSADCFAFGGGTKVEIK | ≥ 49 | ≥ 50 | ≥ 54 | ≥ 37 | ≥ 50 | ≥ 25 | ≥ 52 | ≥ 43 | ≥ 30 | ≥ 45 | ≥ 28 | ≥ 35 | ≥ 52 | ≥ 35 | ≥ 45 | ≥ 37 | ≥ 20 | ≥ 35 | ≥ 35 | ≥ 46 | ADCC cytotoxic activity (51Cr release) on RD-ES: ≥ 48%; ADCC cytotoxic activity (51Cr release) on RPM11666: ≥ 40%; ADCC cytotoxic activity (51Cr release) on Ramos: ≥ 20%; ADCC cytotoxic activity (51Cr release) on SKOV3: ≥ 35%; ADCC cytotoxic activity (51Cr release) on T24: ≥ 36%; ADCC cytotoxic activity (51Cr release) on TGBC14TKB: ≥ 35%; ADCC cytotoxic activity (51Cr release) on TT: ≥ 42%; ADCC cytotoxic activity (51Cr release) on U-87MG: ≥ 36%
humanized antibody #6 (antibody, V domains shown) VH: EVQLVESGGGLVQPGGSLRLSCAASGFSLSSHSLGWVRQAPGKGLEWIGDIRSGGSAYYANWAKGRFTISRDNSKNTLYLQMNSLRAEDTAVYFCTRTNGPSDLTNRLDLWGQGTLVTVSS VL: QVLTQSPSSLSASVGDRVTINCQASQSLYNNENLAWFQQKPGKVPKRLIYGASTLASGVSSRFSGSGSGTEFTLTISSLQCEDFAIYYCLGEFSCGSADCFAFGGGTKVEIK | ≥ 49 | ≥ 50 | ≥ 54 | ≥ 37 | ≥ 50 | ≥ 25 | ≥ 52 | ≥ 43 | ≥ 30 | ≥ 45 | ≥ 28 | ≥ 35 | ≥ 52 | ≥ 35 | ≥ 45 | ≥ 37 | ≥ 20 | ≥ 35 | ≥ 35 | ≥ 46 | ADCC cytotoxic activity (51Cr release) on RD-ES: ≥ 48%; ADCC cytotoxic activity (51Cr release) on RPM11666: ≥ 40%; ADCC cytotoxic activity (51Cr release) on Ramos: ≥ 20%; ADCC cytotoxic activity (51Cr release) on SKOV3: ≥ 35%; ADCC cytotoxic activity (51Cr release) on T24: ≥ 36%; ADCC cytotoxic activity (51Cr release) on TGBC14TKB: ≥ 35%; ADCC cytotoxic activity (51Cr release) on TT: ≥ 42%; ADCC cytotoxic activity (51Cr release) on U-87MG: ≥ 36%
